The results in this text go back to patent US8962697.

One series concerns the target T1, LAR-7009.
T1 chain: PRRRRPRQITA

A further series addresses T2, LAR-7047.
T2 chain: VFFRRQTA

In a further series the target is T3, LAR-7048.
T3 chain: PRRICV

B1: Matrix Metalloproteinase-9 (protein)
chain: MRTPRCGVPDLGRFQTFEGDLKWHHHNITYWIQNYSEDLPRAVIDDAFARAFALWSAVTPLTFTRVYSRDADIVIQFGVAEHGDGYPFDGKDGLLAHAFPPGPGIQGDAHFDDDELWSLGKGVVVPTRFGNADGAACHFPFIFEGRSYSACTTDGRSDGLPWCSTTANYDTDDRFGFCPSERLYTQDGNADGKPCQFPFIFQGQSYSACTTDGRSDGYRWCATTANYDRDKLFGFCPTRADSTVMGGNSAGELCVFPFTFLGKEYSTCTSEGRGDGRLWCATTSNFDSDKKWGFCPDQGYSLFLVAAHEFGHALGLDHSSVPEALMYPMYRFTEGPPLHKDDVNGIRHLYGPRPEPEPRPPTTTTPQPTAPPTVCPTGPPTVHPSERPTAGPTGPPSAGPTGPPTAGPSTATTVPLSPVDDACNVNIFDAIAEIGNQLYLFKDGKYWRFSEGRGSRPQGPFLIADKWPALPRKLDSVFEERLSKKLFFFSGRQVWVYTGASVLGPRRLDKLGLGADVAQVTGALRSGRGKMLLFSGRRLWRFDVKAQMVDPRSASEVDRMFPGVPLDTHDVFQYREKAYFCQDRFYWRVSSRSELNQVDQVGYVTYDILQCPED
Turning to B1, in the series with LAR-7009, the “hydrolysis of the peptide substrate, fragments by mass spectrometry” value was “Degradation of LAR-7009 ... produced specific fragment pick: 1121.66 corresponding to [..] sequence”. Also, the “degradation of the control peptide” value with LAR-7047 and with LAR-7048 was “No degradation was observed in these systems” in each case.

B2: Aureolysin (protein)
chain: AAATGTGKGVLGDTKDININSIDGGFSLEDLTHQGKLSAYNFNDQTGQATLITNEDENFVKDDQRAGVDANYYAKQTYDYYKNTFGRESYDNHGSPIVSLTHVNHYGGQDNRNNAAWIGDKMIYGDGDGRTFTNLSGANDVVAHELTHGVTQETANLEYKDQSGALNESFSDVFGYFVDDEDFLMGEDVYTPGKEGDALRSMSNPEQFGQPSHMKDYVYTEKDNGGVHTNSGIPNKAAYNVIQAIGKSKSEQIYYRALTEYLTSNSNFKDCKDALYQAAKDLYDEQTAEQVYEAWNEVGVE
On to B2, for which the “degradation of the control peptide” value with LAR-7047 and with LAR-7048 was “No degradation was observed in these systems” throughout.
